Measured values from patent publication US20100041596A1.

Experiments:
[1] = target: p6055-211 (Homo sapiens (Human)) (UniProt P19438); experiment: cell staining, normalized to HA staining, p60ΔCD set at 1
[2] = target: p60ΔCD-HA (Homo sapiens (Human)) (UniProt P19438); experiment: as above
[3] = target: p60ΔCD-HA DT49/50AA (Homo sapiens (Human)) (UniProt P19438); experiment: as above
[4] = target: p60ΔCD-HA E57A (Homo sapiens (Human)) (UniProt P19438); experiment: as above
[5] = target: p60ΔCD-HA K19E (Homo sapiens (Human)) (UniProt P19438); experiment: as above
[6] = target: p60ΔCD-HA K32A (Homo sapiens (Human)) (UniProt P19438); experiment: as above
[7] = target: p60ΔCD-HA KY19/20AA (Homo sapiens (Human)) (UniProt P19438); experiment: as above
[8] = target: p60ΔCD-HA L112E (Homo sapiens (Human)) (UniProt P19438); experiment: as above
[9] = target: p60ΔCD-HA N66F (Homo sapiens (Human)) (UniProt P19438); experiment: as above
[10] = target: p60ΔCD-HA Q24A (Homo sapiens (Human)) (UniProt P19438); experiment: as above
[11] = target: p60ΔCD-HA R77A (Homo sapiens (Human)) (UniProt P19438); experiment: as above
[12] = target: p60ΔCD-HA T61A (Homo sapiens (Human)) (UniProt P19438); experiment: as above
[13] = target: p60ΔCD-HA W108T (Homo sapiens (Human)) (UniProt P19438); experiment: as above
[14] = target: p6055-211 (Homo sapiens (Human)) (UniProt P19438); experiment: cell staining, % positive cells / % HA positive cells, p60ΔCD set at 1
[15] = target: p60ΔCD-HA (Homo sapiens (Human)) (UniProt P19438); experiment: as above
[16] = target: p60ΔCD-HA DT49/50AA (Homo sapiens (Human)) (UniProt P19438); experiment: as above
[17] = target: p60ΔCD-HA E57A (Homo sapiens (Human)) (UniProt P19438); experiment: as above
[18] = target: p60ΔCD-HA K19E (Homo sapiens (Human)) (UniProt P19438); experiment: as above
[19] = target: p60ΔCD-HA K32A (Homo sapiens (Human)) (UniProt P19438); experiment: as above
[20] = target: p60ΔCD-HA KY19/20AA (Homo sapiens (Human)) (UniProt P19438); experiment: as above
[21] = target: p60ΔCD-HA L112E (Homo sapiens (Human)) (UniProt P19438); experiment: as above
[22] = target: p60ΔCD-HA N66F (Homo sapiens (Human)) (UniProt P19438); experiment: as above
[23] = target: p60ΔCD-HA Q24A (Homo sapiens (Human)) (UniProt P19438); experiment: as above
[24] = target: p60ΔCD-HA R77A (Homo sapiens (Human)) (UniProt P19438); experiment: as above
[25] = target: p60ΔCD-HA T61A (Homo sapiens (Human)) (UniProt P19438); experiment: as above
[26] = target: p60ΔCD-HA W108T (Homo sapiens (Human)) (UniProt P19438); experiment: as above

Substance: p60-specific monoclonal antibody clone 4.12 (Zymed)
- clone 4.12 staining normalized against HA staining (relative to p60ΔCD) [1]: 0.02
- clone 4.12 staining normalized against HA staining (relative to p60ΔCD) [2]: 1
- clone 4.12 staining normalized against HA staining (relative to p60ΔCD) [3]: 0.96
- clone 4.12 staining normalized against HA staining (relative to p60ΔCD) [4]: 0.04
- clone 4.12 staining normalized against HA staining (relative to p60ΔCD) [5]: 1.07
- clone 4.12 staining normalized against HA staining (relative to p60ΔCD) [6]: 0.01
- clone 4.12 staining normalized against HA staining (relative to p60ΔCD) [7]: 0.14
- clone 4.12 staining normalized against HA staining (relative to p60ΔCD) [8]: 1.27
- clone 4.12 staining normalized against HA staining (relative to p60ΔCD) [9]: 0.04
- clone 4.12 staining normalized against HA staining (relative to p60ΔCD) [10]: 0.97
- clone 4.12 staining normalized against HA staining (relative to p60ΔCD) [11]: 0.99
- clone 4.12 staining normalized against HA staining (relative to p60ΔCD) [12]: 1.28
- clone 4.12 staining normalized against HA staining (relative to p60ΔCD) [13]: 1.11

Substance: p60-specific monoclonal antibody clone MAB225 (R&D Systems)
- MAB225 staining normalized against HA staining (relative to p60ΔCD) [14]: 0.87
- MAB225 staining normalized against HA staining (relative to p60ΔCD) [15]: 1
- MAB225 staining normalized against HA staining (relative to p60ΔCD) [16]: 1.16
- MAB225 staining normalized against HA staining (relative to p60ΔCD) [17]: 1.68
- MAB225 staining normalized against HA staining (relative to p60ΔCD) [18]: 1.05
- MAB225 staining normalized against HA staining (relative to p60ΔCD) [19]: 0.36
- MAB225 staining normalized against HA staining (relative to p60ΔCD) [20]: 0.59
- MAB225 staining normalized against HA staining (relative to p60ΔCD) [21]: 1.31
- MAB225 staining normalized against HA staining (relative to p60ΔCD) [22]: 0.67
- MAB225 staining normalized against HA staining (relative to p60ΔCD) [23]: 1.06
- MAB225 staining normalized against HA staining (relative to p60ΔCD) [24]: 1.06
- MAB225 staining normalized against HA staining (relative to p60ΔCD) [25]: 1.42
- MAB225 staining normalized against HA staining (relative to p60ΔCD) [26]: 1.32
